# Test results as given in PMC11417369, “DNA sequence and chromatin differentiate sequence-specific transcription factor binding in the human malaria parasite Plasmodium falciparum”.
# Residue numbers refer to the chain shown, from its start.
# B1: CACACA_site639 (dsDNA)
# DNA 1: AAAATACACGCATACACACACACACCCACCCATATA
# DNA 2: TATATGGGTGGGTGTGTGTGTGTATGCGTGTATTTT
# B2: CACACA_site7644 (dsDNA)
# DNA 1: AAAAAATACAGACACACACACACACGCATATAAATA
# DNA 2: TATTTATATGCGTGTGTGTGTGTGTCTGTATTTTTT
# B3: CACACA_site2906 (dsDNA)
# DNA 1: AATATAAATAAACACACACACATATATATATATATT
# DNA 2: AATATATATATATATGTGTGTGTGTTTATTTATATT
# B4: CACACA_site1736 (dsDNA)
# DNA 1: ATAGTATACAGACACACACACACACCCATATATATA
# DNA 2: TATATATATGGGTGTGTGTGTGTGTCTGTATACTAT
# B5: CACACA_site8724 (dsDNA)
# DNA 1: AACACATACATATATACACACACAAAATAATAAAAT
# DNA 2: ATTTTATTATTTTGTGTGTGTATATATGTATGTGTT
# B6: CACACA_site7867 (dsDNA)
# DNA 1: AAGGATATAACATACACACACACACGGATATAAATA
# DNA 2: TATTTATATCCGTGTGTGTGTGTATGTTATATCCTT
# B7: CACACA_site2917 (dsDNA)
# DNA 1: ACCATACATACATACACACACACACCCATATATATA
# DNA 2: TATATATATGGGTGTGTGTGTGTATGTATGTATGGT
# B8: CACACA_site8057 (dsDNA)
# DNA 1: ATTAAACATACATATACACACACACCCACCCACCCA
# DNA 2: TGGGTGGGTGGGTGTGTGTGTATATGTATGTTTAAT
# B9: CACACA_site494 (dsDNA)
# DNA 1: CATACATAGAAACACACACACACACCCACCCACAAA
# DNA 2: TTTGTGGGTGGGTGTGTGTGTGTGTTTCTATGTATG
# B10: CACACA_site5427 (dsDNA)
# DNA 1: TAATTATGCGGACACACACACACACCCAACTAAAAA
# DNA 2: TTTTTAGTTGGGTGTGTGTGTGTGTCCGCATAATTA
# B11: CACACA_site2569 (dsDNA)
# DNA 1: B10 DNA 1 with G10A
# DNA 2: B10 DNA 2 with C27T
# B12: CACACA_site7364 (dsDNA)
# DNA 1: AAAAAAAAAAAAAACACACACACACGCATACACATA
# DNA 2: TATGTGTATGCGTGTGTGTGTGTTTTTTTTTTTTTT
# B13: CACACA_site6794 (dsDNA)
# DNA 1: B12 DNA 1 with C33A, T35A, A36T
# DNA 2: B12 DNA 2 with T1A, A2T, G4T
# B14: CACACA_site4117 (dsDNA)
# DNA 1: TATATATATATAGACACACACACACCCATATATATA
# DNA 2: TATATATATGGGTGTGTGTGTGTCTATATATATATA
# B15: CACACA_site8723 (dsDNA)
# DNA 1: TATTCCCCCCAACACACACACACACCGACATACCAC
# DNA 2: GTGGTATGTCGGTGTGTGTGTGTGTTGGGGGGAATA
# B16: CACACA_site2625 (dsDNA)
# DNA 1: AAATAAATGAAACACACACACACAAAAAAAAAAAAC
# DNA 2: GTTTTTTTTTTTTGTGTGTGTGTGTTTCATTTATTT
# B17: CACACA_site5271 (dsDNA)
# DNA 1: TATAAATACAGATACACACACACACCGATATATATA
# DNA 2: TATATATATCGGTGTGTGTGTGTATCTGTATTTATA
# B18: CACACA_site5111 (dsDNA)
# DNA 1: TATTTATAAATTTACACACACACATGGGAACATAAA
# DNA 2: TTTATGTTCCCATGTGTGTGTGTAAATTTATAAATA
# B19: CACACA_site6305 (dsDNA)
# DNA 1: CACACGCACGAACACACACACACACGCACGCACATA
# DNA 2: TATGTGCGTGCGTGTGTGTGTGTGTTCGTGCGTGTG
# B20: CACACA_site6364 (dsDNA)
# DNA 1: ATAATCCTTAGACACACACACACACGAATAAATAAA
# DNA 2: TTTATTTATTCGTGTGTGTGTGTGTCTAAGGATTAT
# B21: CACACA_site7142 (dsDNA)
# DNA 1: TAGTAAAAGATATACACACACCAAAAAATATAATTA
# DNA 2: TAATTATATTTTTTGGTGTGTGTATATCTTTTACTA
# B22: CACACA_site1251 (dsDNA)
# DNA 1: TACAATTTAAAACACACACACAATAATACATATATA
# DNA 2: TATATATGTATTATTGTGTGTGTGTTTTAAATTGTA
# B23: CACACA_site399 (dsDNA)
# DNA 1: AACAACCAAAGGCACACACACAAAAAAAAAAATATA
# DNA 2: TATATTTTTTTTTTTGTGTGTGTGCCTTTGGTTGTT
# B24: CACACA_site6531 (dsDNA)
# DNA 1: AATAAATTTAGACACACACACACATATAAATAAATA
# DNA 2: TATTTATTTATATGTGTGTGTGTGTCTAAATTTATT
# B25: CACACA_site9187 (dsDNA)
# DNA 1: AAAAAAAAAATACATACACACACACCCACCCATATA
# DNA 2: TATATGGGTGGGTGTGTGTGTATGTATTTTTTTTTT
# B26: CACACA_site710 (dsDNA)
# DNA 1: AAAAAAAGATTATACACACACATATATAAACCTACA
# DNA 2: TGTAGGTTTATATATGTGTGTGTATAATCTTTTTTT
# B27: CACACA_site366 (dsDNA)
# DNA 1: CACACCCACCAACACACACACACACCCACCCATATA
# DNA 2: TATATGGGTGGGTGTGTGTGTGTGTTGGTGGGTGTG
# B28: CACACA_site6342 (dsDNA)
# DNA 1: AAAAAAAACAGACACACACACAAATATTTATATATC
# DNA 2: GATATATAAATATTTGTGTGTGTGTCTGTTTTTTTT
# B29: CACACA_site7431 (dsDNA)
# DNA 1: CTTGTCATTTTGCACACACACATGTATAGGTTATTA
# DNA 2: TAATAACCTATACATGTGTGTGTGCAAAATGACAAG
# B30: CACACA_site8742 (dsDNA)
# DNA 1: TTATGTTCTTTAAAACCACACACCCCCCAACCCCCC
# DNA 2: GGGGGGTTGGGGGGTGTGTGGTTTTAAAGAACATAA
# B31: CACACA_site466 (dsDNA)
# DNA 1: CAAAAAAAATAAAACACACACACAAAAAAATAAAAA
# DNA 2: TTTTTATTTTTTTGTGTGTGTGTTTTATTTTTTTTG
# B32: CACACA_site6306 (dsDNA)
# DNA 1: AGCACACGCAGACACACACACACACGCACACGCACA
# DNA 2: TGTGCGTGTGCGTGTGTGTGTGTGTCTGCGTGTGCT
# B33: CACACA_site6309 (dsDNA)
# DNA 1: B32 DNA 1 with G2C, C3A, A4T, C7A
# DNA 2: B32 DNA 2 with G30T, T33A, G34T, C35G
# B34: CACACA_site5102 (dsDNA)
# DNA 1: GAGAAAAATAAATACACACACATAAATAAATACATA
# DNA 2: TATGTATTTATTTATGTGTGTGTATTTATTTTTCTC
# B35: CACACA_site1104 (dsDNA)
# DNA 1: AAAAAAAAAAAAAACACACACACAAAAAAAAATATA
# DNA 2: TATATTTTTTTTTGTGTGTGTGTTTTTTTTTTTTTT
# B36: CACACA_site492 (dsDNA)
# DNA 1: TAAACATACATATACACACACACACCCACACCCACA
# DNA 2: TGTGGGTGTGGGTGTGTGTGTGTATATGTATGTTTA
# B37: CACACA_site9118 (dsDNA)
# DNA 1: AAAAAAAACGCACATACACACACACCCATATATATA
# DNA 2: TATATATATGGGTGTGTGTGTATGTGCGTTTTTTTT
# B38: CACACA_site2752 (dsDNA)
# DNA 1: CAAACATATTAATGTACACACACCCACCCACAAACA
# DNA 2: TGTTTGTGGGTGGGTGTGTGTACATTAATATGTTTG
# B39: CACACA_site370 (dsDNA)
# DNA 1: ATCAAGCACCAACACACACACACACCCCCACCCACA
# DNA 2: TGTGGGTGGGGGTGTGTGTGTGTGTTGGTGCTTGAT
# B40: CACACA_site7104 (dsDNA)
# DNA 1: AACACGCGCAGACACACACACACACGCACATATATA
# DNA 2: TATATATGTGCGTGTGTGTGTGTGTCTGCGCGTGTT
# B41: CACACA_site757 (dsDNA)
# DNA 1: AAACTTGACAGACACACACACACATATATAAAAAAA
# DNA 2: TTTTTTTATATATGTGTGTGTGTGTCTGTCAAGTTT
# B42: CACACA_site8411 (dsDNA)
# DNA 1: AAAAAAAAAAAACACACACACACACCGACAAAATAT
# DNA 2: ATATTTTGTCGGTGTGTGTGTGTGTTTTTTTTTTTT
# B43: CACACA_site6496 (dsDNA)
# DNA 1: TATTAAACTTGACACACACACACACGCATATATAAA
# DNA 2: TTTATATATGCGTGTGTGTGTGTGTCAAGTTTAATA
# B44: CACACA_site8938 (dsDNA)
# DNA 1: TAATTAAATACATTAACACACACACTAATATATACA
# DNA 2: TGTATATATTAGTGTGTGTGTTAATGTATTTAATTA
# Target: T1, PF3D7_0420300 D1 (Plasmodium falciparum, UniProt Q8I1N6 1956-2015)
# T1 sequence: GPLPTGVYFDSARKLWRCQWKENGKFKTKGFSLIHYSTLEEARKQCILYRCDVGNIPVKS
# Experiment: gcPBM; about 25 ug protein; PBS, 1% milk, 0.2 mg/ml BSA, salmon testes DNA, 0.03% Triton X-100
# Details: tags: N-terminal GST (pGEX-4T-1), kept; label: surface-attached array probe
row,Binder,binding signal
1,B1,"10.5 ln median PBM intensity, better of two orientations"
2,B2,"10.2 ln median PBM intensity, better of two orientations"
3,B3,"10.1 ln median PBM intensity, better of two orientations"
4,B4,"10.4 ln median PBM intensity, better of two orientations"
5,B5,"10.1 ln median PBM intensity, better of two orientations"
6,B6,"10.4 ln median PBM intensity, better of two orientations"
7,B7,"10.4 ln median PBM intensity, better of two orientations"
8,B8,"10.9 ln median PBM intensity, better of two orientations"
9,B9,"10.4 ln median PBM intensity, better of two orientations"
10,B10,"10.1 ln median PBM intensity, better of two orientations"
11,B11,"10.1 ln median PBM intensity, better of two orientations"
12,B12,"10.2 ln median PBM intensity, better of two orientations"
13,B13,"10.1 ln median PBM intensity, better of two orientations"
14,B14,"10 ln median PBM intensity, better of two orientations"
15,B15,"10.8 ln median PBM intensity, better of two orientations"
16,B16,"10.5 ln median PBM intensity, better of two orientations"
17,B17,"10.2 ln median PBM intensity, better of two orientations"
18,B18,"10.1 ln median PBM intensity, better of two orientations"
19,B19,"10.4 ln median PBM intensity, better of two orientations"
20,B20,"10.3 ln median PBM intensity, better of two orientations"
21,B21,"10 ln median PBM intensity, better of two orientations"
22,B22,"10.1 ln median PBM intensity, better of two orientations"

row,Binder,binding signal
1,B23,"10 ln median PBM intensity, better of two orientations"
2,B24,"10.2 ln median PBM intensity, better of two orientations"
3,B25,"10.4 ln median PBM intensity, better of two orientations"
4,B26,"10.1 ln median PBM intensity, better of two orientations"
5,B27,"10.4 ln median PBM intensity, better of two orientations"
6,B28,"10.2 ln median PBM intensity, better of two orientations"
7,B29,"10.1 ln median PBM intensity, better of two orientations"
8,B30,"10.4 ln median PBM intensity, better of two orientations"
9,B31,"10.2 ln median PBM intensity, better of two orientations"
10,B32,"10.5 ln median PBM intensity, better of two orientations"
11,B33,"10.4 ln median PBM intensity, better of two orientations"
12,B34,"10.2 ln median PBM intensity, better of two orientations"
13,B35,"10.1 ln median PBM intensity, better of two orientations"
14,B36,"10.4 ln median PBM intensity, better of two orientations"
15,B37,"10 ln median PBM intensity, better of two orientations"
16,B38,"10.4 ln median PBM intensity, better of two orientations"
17,B39,"10.8 ln median PBM intensity, better of two orientations"
18,B40,"10.5 ln median PBM intensity, better of two orientations"
19,B41,"10.1 ln median PBM intensity, better of two orientations"
20,B42,"10.2 ln median PBM intensity, better of two orientations"
21,B43,"10.3 ln median PBM intensity, better of two orientations"
22,B44,"10 ln median PBM intensity, better of two orientations"
